From paper PMC4204884
Like-named read-outs stand apart in the source and are kept apart here.

Assays:
Cdc5-R1-R2-D3ΔL [1] = target: T1, Cdc5-R1-R2-D3ΔL (Schizosaccharomyces pombe, UniProt P39964 5-208, del111-146); experiment: pull-down
Cdc5-R1-R2-D3ΔL [2] = target: T1, Cdc5-R1-R2-D3ΔL; experiment: pull-down; remark: listed apart in the source

| Binder | binding result (Cdc5-R1-R2-D3ΔL [1]) | binding result (Cdc5-R1-R2-D3ΔL [2]) |
| --- | --- | --- |
| AAGUGUAG (ssRNA) [Bi-U2 ssRNA] | binds |  |
| CGUACACCAUCAGGGUACG (structured_RNA) [Bi-MS2 dsRNA] |  | binds |
| CAGAGAA (ssRNA) [Bi-U6 ssRNA] | binds |  |
